Test results from article PMC7356358, “Comparative Characterization of Plasmodium falciparum Hsp70-1 Relative to E. coli DnaK Reveals the Functional Specificity of the Parasite Chaperone” (Biomolecules, 2020).
Values joined by “and” are separate entries in the source; they are usually repeats but may differ in a detail not shown here. Equal values may be shown once.

B1: Plasmodium falciparum Hsp70-1 (natural protein)
chain: not shown
notes: Plasmodium falciparum Hsp70-1, cytosolic Hsp70; PlasmoDB PF3D7_0818900; expressed from pQE30/PfHsp70-1; also called PfHsp70-1; PfHsp70

Experiments:
[1] = target: the molecule itself; experiment: SPR; MP-SPR (BioNavis); Hsp70 immobilised on a CMD3D 500L chip, the same Hsp70 as analyte at 0-2000 nM; with 5 mM ADP; self-association, step not told; global fit
[2] = target: the molecule itself; experiment: SPR; MP-SPR (BioNavis); Hsp70 immobilised on a CMD3D 500L chip, the same Hsp70 as analyte at 0-2000 nM; no nucleotide; self-association, step not told; global fit
[3] = target: the molecule itself; experiment: SPR; MP-SPR (BioNavis); Hsp70 immobilised on a CMD3D 500L chip, the same Hsp70 as analyte at 0-2000 nM; with 5 mM ATP; self-association, step not told; global fit
[4] = target: B1; experiment: SPR; conditions: both partners purified
Escherichia coli DnaK [5] = target: T1, Escherichia coli DnaK (Escherichia coli, UniProt P0A6Y8 1-638); experiment: SPR; MP-SPR; Hsp70 immobilised, peptide as analyte at 0-2000 nM, 100 µL/min; with 5 mM ATP (hydrolysable); conditions: both partners purified
T1 construct: E. coli Hsp70 (DnaK); expressed from pQE30/DnaK; also called E. coli Hsp70

Escherichia coli DnaK [6] = target: T1, Escherichia coli DnaK; experiment: SPR; MP-SPR; Hsp70 immobilised, peptide as analyte at 0-2000 nM, 100 µL/min; with 5 mM ADP; conditions: both partners purified
[7] = target: B1; experiment: SPR; MP-SPR (BioNavis); Hsp70 immobilised (1.0 μg/mL), PfHsp40 as analyte at 0-2000 nM; with 5 mM ATP; global fit; conditions: both partners purified
[8] = target: B1; experiment: SPR; MP-SPR (BioNavis); Hsp70 immobilised (1.0 μg/mL), PfHsp40 as analyte at 0-2000 nM; with 5 mM ADP; global fit; conditions: both partners purified
Escherichia coli DnaK [9] = target: T1, Escherichia coli DnaK; experiment: SPR; conditions: both partners purified
[10] = target: B1; experiment: SPR; MP-SPR (BioNavis); Hsp70 immobilised (1.0 μg/mL), PfHsp40 as analyte at 0-2000 nM; no nucleotide; global fit; conditions: both partners purified

B1 gave a Kd [1] of 1.71 µM, a kon [1] of 100 M⁻¹ s⁻¹ and a Kd [2] of 2.39 µM. It also gave a kon [2] of 8510 M⁻¹ s⁻¹, a Kd [3] of 0.528 µM and a kon [3] of 21400 M⁻¹ s⁻¹.

ANNNMYRR (source: synthetic peptide) [peptide ANNNMYRR]: binds [4]; binds (Escherichia coli DnaK [5]).

GFRNNNMYRF (source: synthetic peptide) [peptide GFRNNNMYRF]: binds [4]; binds (Escherichia coli DnaK [5]).

B2: peptide GFRVVLMYRF (peptide)
peptide: GFRVVLMYRF
notes: canonical model Hsp70 peptide substrate; source: synthetic peptide
B2: binds [4]; binds (Escherichia coli DnaK [5]).

B3: peptide ALLLMYRR (peptide)
peptide: ALLLMYRR
notes: as for B2
B3: binds [4]; binds (Escherichia coli DnaK [6]).

B4: Plasmodium falciparum Hsp40 (natural protein, UniProt Q8IL88 1-424, looked up)
chain: MFFSSGFPFDSMGGQQARRKREVNNNKFYEVLNLKKNCTTDEVKKAYRKLAIIHHPDKGGDPEKFKEISRAYEVLSDEEKRKLYDEYGEEGLENGEQPADATDLFDFILNAGKGKKKRGEDIVSEVKVTLEQLYNGATKKLAISKDIICTNCEGHGGPKDAKVDCKQCNGRGTKTYMRYHSSVLHQTEVTCNTCRGKGKIFNEKDKCANCKGMCVLKTRKIIEVYIPKGAPNKHKIVFNGEADEKPNVITGNLVVILNEKQHPVFRREGIDLFMNYKISLYESLTGFVAEVTHLDERKILVNCTNSGFIRHGDIREVLDEGMPTYKDPFKKGNLYITFEVEYPMDLIITNENKEVLKILKKQNEVEKKYDLENSELEVVSCSPVDKEYIKVRVTKQQQQQQQEAYDDEDHQPEMEGGRVACAQQ
notes: P. falciparum type I Hsp40, cytosolic co-chaperone of PfHsp70-1; PlasmoDB PF3D7_1437900; codon harmonized gene cloned into pQE30 (BamHI, HindIII); also called PfHsp40
B4 gave a Kd [7] of 0.208 µM, a kon [7] of 181 M⁻¹ s⁻¹ and a Kd [8] of 9.98 µM. The kon [8] was 1530 M⁻¹ s⁻¹, the kon (Escherichia coli DnaK [9]) was 122 M⁻¹ s⁻¹ and 116 M⁻¹ s⁻¹ and 112 M⁻¹ s⁻¹ and the Kd [10] was 18.8 µM. For the same binder, the kon [10] was 1330 M⁻¹ s⁻¹.

B5: peptide NRNNTG (peptide)
peptide: NRNNTG
notes: NRLLTG with the middle residues substituted by asparagine; source: synthetic peptide
B5: binds [4]; binds (Escherichia coli DnaK [6]).

B6: peptide NRLLTG (peptide)
peptide: NRLLTG
notes: as for B2
B6: binds [4]; binds (Escherichia coli DnaK [6]).
